B1: RHOBTB3 (parent)
chain: KVVEAHKIVLCAVSHVFMLLFNVK

Here are results for 94 variants from the supplement of paper PMC10567573.
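Further: lentivirally expressed fusions sorted by FACS into six bins by GFP to DsRed ratio, PSI derived from sequencing read proportions per bin multiplied by bin number.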

Variants of B1 are the subject of the data set. As to the kind of experiment: protein stability index of a GFP-peptide fusion (GPS, HEK-293T) (PSI 1-6); higher = more stable. Conditions: c terminus: a fixed tail appended.
Regarding KVVEAHKIVLCAVSKVFMLLFNVK [H15K], the protein stability index turned out to be 2.17.

As to KVVEAHKIVLCAVSRVFMLLFNVK [H15R], the protein stability index was found to be 2.27.

For the variant KVVEAHKIVLCAVSVVFMLLFNVK [H15V], the protein stability index is 3.1.

In the case of KVVEAHKIVLCAVSYVFMLLFNVK [H15Y], the protein stability index was found to be 3.36.

As to KVVEAHKIVLCAVSSVFMLLFNVK [H15S], the protein stability index was 2.82.

With KVVEAHKIVLCAVSNVFMLLFNVK [H15N], the protein stability index was 3.41.

Take KVVEAHKIVLCAVSQVFMLLFNVK [H15Q]: the protein stability index is 2.78.

For KVVEAHKIVLCAVSIVFMLLFNVK [H15I], the protein stability index was determined as 3.89.

KVVEAHKIVLCAVSCVFMLLFNVK [H15C]: the protein stability index was 3.87.

In the case of KVVEAHKIVLCAVSFVFMLLFNVK [H15F], the protein stability index amounted to 2.06.

For KVVEAHKIVLCAVSTVFMLLFNVK [H15T], the protein stability index was determined as 1.92.

For the variant KVVEAHKIVLCAVSDVFMLLFNVK [H15D], the protein stability index came out at 3.14.

Consider KVVEAHKIVLCAVSPVFMLLFNVK [H15P], for which the protein stability index was determined as 1.89.

As for KVVEAHKIVLCAVSHVFMLLFKVK [N22K], the protein stability index was determined as 1.9.

In the case of KVVEAHKIVLCAVSHVFMLLFRVK [N22R], the protein stability index amounted to 2.69.

In the case of KVVEAHKIVLCAVSHVFMLLFFVK [N22F], the protein stability index stood at 2.43.

Turning to KVVEAHKIVLCAVSHVFMLLFIVK [N22I], the protein stability index amounted to 3.19.

With KVVEAHKIVLCAVSHVFMLLFAVK [N22A], the protein stability index was 2.86.

Take KVVEAHKIVLCAVSHVFMLLFLVK [N22L]: the protein stability index stood at 2.42.

KVVEAHKIVLCAVSHVFMLLFCVK [N22C]: the protein stability index is 2.31.

Consider KVVEAHKIVLCAVSHVFMLLFQVK [N22Q], for which the protein stability index came to 2.84.

With KVVEAHKIVLCAVSHVFMLLFDVK [N22D], the protein stability index was 3.27.

Regarding KVVEAHKIVLCAVSHVFMLLFHVK [N22H], the protein stability index was found to be 2.8.

For KVVEAHKIVLCAVSHVFMLLFGVK [N22G], the protein stability index was found to be 2.71.

Consider KVVEAHKIVLCAVSHVFMLLFYVK [N22Y], for which the protein stability index stood at 1.85.

As to KVVEAHKIVLCAVSHVFMLLFSVK [N22S], the protein stability index came out at 2.72.

As to KVVEAHKIVLCAVSHVFMLLFPVK [N22P], the protein stability index is 2.1.

Turning to KVVEAHKIVLCAVSHVFMLLFEVK [N22E], the protein stability index was found to be 2.47.

As for KVVEAHKIVLCAVSHVFMLLFTVK [N22T], the protein stability index was 4.37.

Turning to KVVEAHKIVLCAVSHVFMLLFMVK [N22M], the protein stability index was 3.79.

As to KVVEAHKIVLCAVSHVSMLLFNVK [F17S], the protein stability index came out at 2.33.

Consider KVVEAHKIVLCAVSHVMMLLFNVK [F17M], for which the protein stability index came to 2.78.

For KVVEAHKIVLCAVSHVAMLLFNVK [F17A], the protein stability index was 2.4.

For the variant KVVEAHKIVLCAVSHVCMLLFNVK [F17C], the protein stability index turned out to be 3.12.

With KVVEAHKIVLCAVSHVWMLLFNVK [F17W], the protein stability index was 2.49.

With KVVEAHKIVLCAVSHVQMLLFNVK [F17Q], the protein stability index turned out to be 2.41.

As to KVVEAHKIVLCAVSHVKMLLFNVK [F17K], the protein stability index was 2.76.

KVVEAHKIVLCAVSHVHMLLFNVK [F17H]: the protein stability index came out at 3.54.

Turning to KVVEAHKIVLCAVSHVRMLLFNVK [F17R], the protein stability index stood at 2.23.

On to KVVEAHKIVLCAVSHVDMLLFNVK [F17D], for which the protein stability index came out at 2.52.

For the variant KVVEAHKIVLCAVSHVEMLLFNVK [F17E], the protein stability index came out at 3.12.

On to KVVEAHKIVLCAVSHVGMLLFNVK [F17G], for which the protein stability index is 3.57.

KVVEAHKIVLCAVSHVTMLLFNVK [F17T]: the protein stability index turned out to be 2.9.

Regarding KVVEAHKIVLCAVSHVVMLLFNVK [F17V], the protein stability index is 1.88.

Consider KVVEAHKIVLCAVSHVIMLLFNVK [F17I], for which the protein stability index is 2.06.

Regarding KVVEAHKIVLCAPSHVFMLLFNVK [V13P], the protein stability index is 2.59.

Regarding KVVEAHKIVLCARSHVFMLLFNVK [V13R], the protein stability index worked out at 3.01.

In the case of KVVEAHKIVLCATSHVFMLLFNVK [V13T], the protein stability index amounted to 4.13.

For KVVEAHKIVLCAWSHVFMLLFNVK [V13W], the protein stability index came out at 1.82.

On to KVVEAHKIVLCAESHVFMLLFNVK [V13E], for which the protein stability index worked out at 2.5.

As for KVVEAHKIVLCAHSHVFMLLFNVK [V13H], the protein stability index was found to be 2.36.

KVVEAHKIVLCACSHVFMLLFNVK [V13C]: the protein stability index was determined as 3.14.

Turning to KVVEAHKIVLCAQSHVFMLLFNVK [V13Q], the protein stability index came to 2.9.

In the case of KVVEAHKIVLCAKSHVFMLLFNVK [V13K], the protein stability index amounted to 3.18.

Turning to KVVEAHKIVLCALSHVFMLLFNVK [V13L], the protein stability index came out at 2.12.

With KVVEAHKIVLCAYSHVFMLLFNVK [V13Y], the protein stability index was found to be 2.62.

Consider KVVEAHKIVLCAASHVFMLLFNVK [V13A], for which the protein stability index is 1.41.

On to KVVEAHKIVLCASSHVFMLLFNVK [V13S], for which the protein stability index came out at 2.92.

On to KVVEAHKIVLCAMSHVFMLLFNVK [V13M], for which the protein stability index is 4.81.

For the variant KVVEAHKIVLCANSHVFMLLFNVK [V13N], the protein stability index worked out at 2.33.

Take KVVEAHKIVLCAISHVFMLLFNVK [V13I]: the protein stability index was 2.66.

On to KVVEAHKIVLCAGSHVFMLLFNVK [V13G], for which the protein stability index came out at 2.42.

Consider KVVEAHKIVLCAVSHVFMLLANVK [F21A], for which the protein stability index is 3.13.

With KVVEAHKIVLCAVSHVFMLLKNVK [F21K], the protein stability index worked out at 1.76.

Consider KVVEAHKIVLCAVSHVFMLLVNVK [F21V], for which the protein stability index is 3.87.

For the variant KVVEAHKIVLCAVSHVFMLLLNVK [F21L], the protein stability index came out at 2.76.

Consider KVVEAHKIVLCAVSHVFMLLINVK [F21I], for which the protein stability index was 3.17.

In the case of KVVEAHKIVLCAVSHVFMLLPNVK [F21P], the protein stability index stood at 1.98.

KVVEAHKIVLCAVSHVFMLLGNVK [F21G]: the protein stability index was 4.01.

Consider KVVEAHKIVLCAVSHVFMLLENVK [F21E], for which the protein stability index worked out at 1.88.

KVVEAHKIVLCAVSHVFMLLRNVK [F21R]: the protein stability index was determined as 1.81.

For the variant KVVEAHKIVLCAVSHVFMLLYNVK [F21Y], the protein stability index was 2.14.

Take KVVEAHKIVLCAVSHVFMLLDNVK [F21D]: the protein stability index worked out at 3.1.

In the case of KVVEAHKIVLCAVSHVFMLLWNVK [F21W], the protein stability index amounted to 2.5.

Consider KVVEAHKIVLCAVSHVFMLLMNVK [F21M], for which the protein stability index was 3.68.

Turning to KVVEAHKIVLCAVSHVFMLLHNVK [F21H], the protein stability index was 2.51.

For the variant KVVEAHKIVLCAVSHVFMLLNNVK [F21N], the protein stability index was found to be 2.8.

Turning to KVVEAHKIVLCAVSHVFMLLFNGK [V23G], the protein stability index is 3.05.

As to KVVEAHKIVLCAVSHVFMLLFNYK [V23Y], the protein stability index turned out to be 3.03.

Consider KVVEAHKIVLCAVSHVFMLLFNRK [V23R], for which the protein stability index was 3.19.

As to KVVEAHKIVLCAVSHVFMLLFNCK [V23C], the protein stability index was found to be 2.47.

KVVEAHKIVLCAVSHVFMLLFNHK [V23H]: the protein stability index was 3.18.

As for KVVEAHKIVLCAVSHVFMLLFNSK [V23S], the protein stability index was found to be 2.44.

KVVEAHKIVLCAVSHVFMLLFNIK [V23I]: the protein stability index turned out to be 2.57.

Regarding KVVEAHKIVLCAVSHVFMLLFNMK [V23M], the protein stability index was found to be 1.75.

With KVVEAHKIVLCAVSHVFMLLFNEK [V23E], the protein stability index stood at 3.25.

Consider KVVEAHKIVLCAVSHVFMLLFNLK [V23L], for which the protein stability index came out at 2.62.

Turning to KVVEAHKIVLCAVSHVFMLLFNFK [V23F], the protein stability index turned out to be 2.99.

For the variant KVVEAHKIVLCAVSHVFMLLFNQK [V23Q], the protein stability index stood at 1.91.

In the case of KVVEAHKIVLCAVSHVFMLLFNWK [V23W], the protein stability index is 2.5.

As to KVVEAHKIVLCAVSHVFMLLFNPK [V23P], the protein stability index came out at 2.86.

With KVVEAHKIVLCAVSHVFMLLFNKK [V23K], the protein stability index is 3.66.

Consider KVVEAHKIVLCAVSHVFMLLFNTK [V23T], for which the protein stability index stood at 3.33.

On to KVVEAHKIVLCAVSHVFMLLFNDK [V23D], for which the protein stability index was found to be 2.29.
